{
  "source": "paper PMC5815094",
  "details_in_all_cases": "ES buffer: 10 mM Tris pH 8.0, 10 mM KCl, 40 mM NaCl, 1 mM MgCl2; MST + 0.05% Tween-20, room temperature; EMSA + 25 ng tRNA per 10 ul, 37 C 15 min (Fig 6D); NMR …",
  "key": {"[1]": {"target": "Hfq (Pseudomonas aeruginosa PAO1) (UniProt Q9HUM0)", "assay": "EMSA"}, "[2]": {"target": "Hfq;Crc (Pseudomonas aeruginosa PAO1;Pseudomonas aeruginosa PAO1) (UniProt Q9HUM0+Q51380)", "assay": "MST"}, "[3]": {"target": "Hfq (Pseudomonas aeruginosa PAO1) (UniProt Q9HUM0)", "assay": "MST"}},
  "data": [
    {"substance": "GGACUGGUCGCGAGGCCAGCAGGUAAGCUGAGAGACCAAGCAGUCGGACUCUUCAGAUUAUCUCCUCAUCAGGCUAAUCACGGUUUCGACCCGGCACUUUGCCGGGUCUUUUUUUG [PrrF2 sRNA]", "values": [
      {"measurement": "binding", "setting": "[1]", "result": "binds"}
    ]},
    {"substance": "PrrF2 sRNA", "values": [
      {"measurement": "Kd", "setting": "[2]", "result": 35, "unit": "nM"},
      {"measurement": "Kd", "setting": "[3]", "result": 6.7, "unit": "nM"}
    ]}
  ]
}
